Experimental data as given in publication PMC9481175.

Molecular target: His-tagged pleckstrin homology (PH) domain of AKT (AKT-PHD) (Marsupenaeus japonicus)
Test: ITC; CaM (70 uM) titrated into 10 uM AKT-PHD in the cell; 25°C; 0.1 M Tris-HCl pH 8.0; 19 injections; Auto-iTC200

- Kd: 726 nM
- dH: -80.1 kcal/mol
Substance: recombinant GST-tagged calmodulin (CaM) (natural protein)
